Patent US8357518B2, “Thermostable enzymes for the hydrolysis of mannan-containing polysaccharides” (The Board of Trustees of the University of Illinois, priority 2010, dated 2013)

B1: Caldanaerobius polysaccharolyticus endo-β-mannanase Man5A truncation mutant Man5A-TM2, SEQ ID NO: 29 (Caldanaerobius polysaccharolyticus) (protein)
chain: AGTSGDGRFHVVGNKIVDPDGKDFIIKGVNIQGYRSWEKRSVLQDVHLIADVWKFNTVRLNCFIGQNNWGEGTGANNDIDAIIKAFTAKKVVVEIDLHDTTGYPPLSNPPPAPGQPSLDQAIAWFKELAAKYKDNPYVWFNTMNEPGSSTAPLDPQWKVANEEIIKAIRSTGADNIIVVDGWSYANEGIEQNTPTVDEKRSAVLTYGQDLLNADSAKNTIFAFHNYNEGDIQKKVEDYIDRANAKGLYVFMEEYGKDYSDAAKEGVKSGLQAVMNKGAGRIYWNWDGYDLYDLTSGTGRGSGWEINKTDGSKPTNLSWVGDKIWDDNHGITPTFDDQNPKVDLALERLIANNNGFKAGDKVQFTTFLRNSGDLPIGKDSKVVVKFYVDGVQLGDPVEISGGIAVGQRIPVTSPELTVSKTDFTVKAVIDSSSTYADGAEDAVIENNWIEAAFNSTAPSSGYELVVTGIKITPDTVKEGDYVQAQVTVANQGPEATPVTNIIGWFYVNGYYYTLDDAAKSCAEQDNVTLKPGESITLSTKVKYRAAAPFNFSFVLENLYADDQNQSNNSITVNVPVK
B2: Caldanaerobius polysaccharolyticus endo-β-mannanase Man5B, wild type, SEQ ID NO: 31 (Caldanaerobius polysaccharolyticus) (protein)
chain: MKKYGFNFQWMYVWEEGREPEPPDKKALDFLAETGFNFVRIPVDYRFWTRNFDYFNPDKKVFEYIDLYLRECSARNIHMCLNLHRAPGYCINRNDIERDNLWLDKRAQDGFVYQWELFAKRYKGVSSKFLSFDLVNEPPNIGQYGLTRENHASLIIRTVEAIRKIDPDREIVIDGLGGGNIAMPELAHLGVVHSGRGYQPMALTHYQASWWDGHKGLPEPYYPDLLWQGKVWNKDTLREYYKPWRDLQQKGVNVHIGEFGCFNKTSNDVAIRWFEDVLSLYKEFEWGYSLWNFKGPFGIVEHGRPGAKYEYYRGFKVDRELLDLLVENRV

What was measured:
Type in all cases: biochemical, Caldanaerobius polysaccharolyticus
[1] = substrate: O=[N+]([O-])c1ccc(O[C@@H]2O[C@H](CO)[C@@H](O[C@@H]3O[C@H](CO)[C@@H](O)[C@H](O)[C@H]3O)[C@H](O)[C@H]2O)cc1; test: Catalytic efficiency with pNP-linked sugars (Man5A-TM2); conditions: other: Man5A-TM2, pNP substrates, citrate buffer 50 mM, pH 5.5, 65° C., triplicate
Description: (§1) The plasmid constructs were then introduced into E. coli BL-21 CodonPlus (DE3) RIL competent cells by heat shock, and grown overnight in lysogeny broth (LB) agar medium supplemented with ampicillin (100 μg/mL) and chloramphenicol (50 μg/mL) at 37° C. After 12 h, single colonies were selected and used to inoculate fresh LB (10 mL) supplemented with the antibiotics above at the same concentrations, followed by culturing with aeration for 8 h at 37° C. The pre-cultures were then inoculated into fresh LB (1 L) supplemented with ampicillin and chloramphenicol and the cultures were incubated at 37° C. with vigorous aeration (225 rpm/min). […] Aliquots of eluted fractions were analyzed by sodium dodecyl sulfate-polyacrylamide gel electrophoresis (SDS-PAGE) and protein bands were visualized by staining with Coomassie brilliant blue G-250. […] The UV absorbances of the protein solutions were recorded at 280 nm using a Nanoprop 1000 from Thermo Scientific (Waltham, Mass.) and the protein concentrations were calculated using the following extinction coefficients: Man5A-TM1, ε280 nm=189 mM^−1 cm^−1; Man5A-TM2, ε280 nm=113 mM^−1 cm^−1; Man5B, ε280 nm=103 mM^−1 cm^−1.
(§2) Hydrolysis of para-nitrophenyl (pNP) linked sugars. […] The extinction coefficient of pNP at pH 5.5 was determined as 1636 M^−1 cm^−1.

[2] = substrate: O=[N+]([O-])c1ccc(O[C@@H]2O[C@H](CO)[C@@H](O)[C@H](O)[C@@H]2O)cc1; test: as above; conditions: other: Man5A-TM2, pNP substrates, citrate buffer 50 mM, pH 5.5, 65° C., triplicate
Description: as §1, §2

[3] = substrate: O=[N+]([O-])c1ccc(O[C@@H]2O[C@H](CO)[C@@H](O[C@@H]3O[C@H](CO)[C@@H](O)[C@H](O)[C@H]3O)[C@H](O)[C@H]2O)cc1; test: Kinetic properties with pNP-linked sugars (Man5B wild type); conditions: other: wild type Man5B 5 nM, substrate 0.06 to 10 mM, 65° C., citrate buffer pH 5.5
Description: (§3) The plasmid constructs were then introduced into E. coli BL-21 CodonPlus (DE3) RIL competent cells by heat shock, and grown overnight in lysogeny broth (LB) agar medium supplemented with ampicillin (100 μg/mL) and chloramphenicol (50 μg/mL) at 37° C. After 12 h, single colonies were selected and used to inoculate fresh LB (10 mL) supplemented with the antibiotics above at the same concentrations, followed by culturing with aeration for 8 h at 37° C. The pre-cultures were then inoculated into fresh LB (1 L) supplemented with ampicillin and chloramphenicol and the cultures were incubated at 37° C. with vigorous aeration (225 rpm/min). The cultures were grown to an optical density of 0.3 at 600 nm, and the temperature was shifted to 16° C. and gene expression was induced by the addition of 0.1 mM isopropyl β-D-thiogalactopyranoside (IPTG). After 16 h of growth, the cells were harvested by centrifugation (4000×g, […], 4° C.), the cell pellets were then re-suspended in 30 mL lysis buffer (50 mM Tris-HCl, 300 mM NaCl, pH 7.0), and ruptured by two passages through an EmulsiFlex C-3 cell homogenizer from Avestin (Ottawa, Canada). The cell lysate was then clarified by centrifugation at 20,000×g for 30 min at 4° C. to remove cell debris. The lysate containing recombinant protein was then incubated at 65° C. for 30 min, and centrifuged at 20,000×g for 15 min at 4° C. to remove heat labile E. coli proteins. The recombinant proteins were then purified from the heat treated supernatant using the Talon Metal Affinity Resin according to the supplier's protocol, with the exception that Tris-based binding (50 mM Tris-HCl, 300 mM NaCl, pH 7.5), and elution (50 mM Tris-HCl, 300 mM NaCl, 250 mM Imidazole, pH 7.5) buffers were employed. Aliquots of eluted fractions were analyzed by sodium dodecyl sulfate-polyacrylamide gel electrophoresis (SDS-PAGE) and protein bands were visualized by staining with Coomassie brilliant blue G-250. Elution fractions were pooled and the proteins were then exchanged into protein storage buffer (50 mM Tris-HCl, 150 mM NaCl, pH 7.5) by three successive concentration and dilution cycles with Amicon Ultra-15 centrifugal filter units (Man5A-TM1, Man5A-TM2, 50,000 MWCO; Man5B,10,000 MWCO). The UV absorbances of the protein solutions were recorded at 280 nm using a Nanoprop 1000 from Thermo Scientific (Waltham, Mass.) and the protein concentrations were calculated using the following extinction coefficients: Man5A-TM1, ε280 nm=189 mM^−1 cm^−1; Man5A-TM2, ε280 nm=113 mM^−1 cm^−1; Man5B, ε280 nm=103 mM^−1 cm^−1.
(§4) Determination of kinetic properties for wild type and mutant Man5B with pNP-linked sugars. Kinetic properties of wild type and mutant Man5B were determined for pNP-β-D-mannopyranoside and pNP-β-D-cellobioside. The substrate concentrations ranged from 0.06 to 10 mM and reactions were performed at 65° C. in citrate buffer (50 mM sodium citrate, pH 5.5). The reactions were equilibrated to 65° C. using a thermostated Cary 300 UV-Vis spectrophotometer, and the reactions were initiated by the addition of wild type (5 nM, final concentration) or mutant (2 μM, final concentration) Man5B. The rate of pNP release was determined by continuously monitoring the absorbance at 400 nm. Initial rate data were then plotted against the substrate concentrations, and the values of the Michaelis-Menten constant (KM) and the maximum velocity (Vmax) were estimated from a nonlinear curve fit using GraphPad Prism v5.01 from GraphPad Software (San Diego, Calif.). The kcat was calculated as the quotient of the Vmax and the concentration of enzyme used in the reaction.
(§5) Next, to test whether the mutations introduced in Man5B had any effects on the catalytic activity of this enzyme, the catalytic parameters for the wild type and mutant enzymes were determined using pNP-β-D-cellobioside and pNP-β-D-mannopyranoside as substrates.

[4] = substrate: O=[N+]([O-])c1ccc(O[C@@H]2O[C@H](CO)[C@@H](O)[C@H](O)[C@@H]2O)cc1; test: as above; conditions: other: wild type Man5B 5 nM, substrate 0.06 to 10 mM, 65° C., citrate buffer pH 5.5
Description: as §3, §4, §5

Protein | kcat/Km [1] | kcat/Km [2] | Km [3] | kcat [3] [s⁻¹] | kcat/Km [3] [M⁻¹ s⁻¹] | Km [4] [mM] | kcat [4] [s⁻¹] | kcat/Km [4] [M⁻¹ s⁻¹]
B1 | (2.5 ± 0.3) × 10^−2 mM^−1 s^−1 | (1.1 ± 0.2) × 10^−2 mM^−1 s^−1 | – | – | – | – | – | –
B2 | – | – | (9.7 ± 1) × 10^−2 mM | 2.4 ± 0.1 | 25000 ± 2000 | 26 ± 4 | 42 ± 3 | 1600 ± 100
